Reference: patent CN114958811A

Target: RBD-His (近岸生物 货号 DRA42) (SARS-CoV-2) (UniProt P0DTC2)

hACE2-Fc融合蛋白 (fusion of the human ACE2 extracellular domain with the Fc fragment of human IgG1) (Fc fusion)
亲和力: 0.54 nM
